Measured values as given in patent US20130209454A1.

Tests used:
Assay in all cases: cell-based or functional assay
[1] = target: HIV-1 Env of strain SC05_8C11_2344 (HIV-1)
[2] = target: Env of HIV-1 strain SC05_8C11_2344 (HIV-1)
[3] = target: Env of HIV-1 strain Du156.12 (HIV-1)
[4] = target: HIV-1 Env of strain 246F C1G (HIV-1)
[5] = target: Env of HIV-1 strain X1193_c1 (HIV-1)
[6] = target: Env of HIV-1 strain 620345.c01 (HIV-1)
[7] = target: Env of HIV-1 strain HIV-16055-2.3 (HIV-1)
[8] = target: HIV-1 Env of strain X1193_c1 (HIV-1)
[9] = target: HIV-1 Env of strain Du422.1 (HIV-1)
[10] = target: Env of HIV-1 strain 3016.v5.c45 (HIV-1)
[11] = target: Env of HIV-1 strain BJOX010000.06.2 (HIV-1)
[12] = target: HIV-1 Env of strain 3365.v2.c2 (HIV-1)
[13] = target: HIV-1 Env of strain Ce2010_F5 (HIV-1)
[14] = target: HIV-1 Env of strain 191955_A11 (HIV-1)
[15] = target: HIV-1 Env of strain TRJO4551.58 (HIV-1)
[16] = target: HIV-1 Env of strain 191821_E6_1 (HIV-1)
[17] = target: Env of HIV-1 strain 0815.v3.c3 (HIV-1)
[18] = target: HIV-1 Env of strain Du156.12 (HIV-1)
[19] = target: Env of HIV-1 strain T257-31 (HIV-1)
[20] = target: Env of HIV-1 strain T278-50 (HIV-1)
[21] = target: Env of HIV-1 strain 6041.v3.c23 (HIV-1)
[22] = target: HIV-1 Env of strain 249M B10 (HIV-1)
[23] = target: Env of HIV-1 strain SC422661.8 (HIV-1)
[24] = target: HIV-1 Env of strain BJOX028000.10.3 (HIV-1)
[25] = target: Env of HIV-1 strain Ce703010054_2A2 (HIV-1)
[26] = target: HIV-1 Env of strain Q769.d22 (HIV-1)
[27] = target: Env of HIV-1 strain Ce1176_A3 (HIV-1)
[28] = target: HIV-1 Env of strain 89-F1_2_25 (HIV-1)
[29] = target: Env of HIV-1 strain Du172.17 (HIV-1)
[30] = target: Env of HIV-1 strain Q769.d22 (HIV-1)
[31] = target: Env of HIV-1 strain ZM53M.PB12 (HIV-1)
[32] = target: HIV-1 Env of strain Ce703010054_2A2 (HIV-1)
[33] = target: HIV-1 Env of strain CNE5 (HIV-1)
[34] = target: Env of HIV-1 strain QH0692.42 (HIV-1)
[35] = target: HIV-1 Env of strain 6540.v4.c1 (HIV-1)
[36] = target: Env of HIV-1 strain C1080.c03 (HIV-1)
[37] = target: HIV-1 Env of strain BJOX009000.02.4 (HIV-1)
[38] = target: Env of HIV-1 strain Q842.d12 (HIV-1)
[39] = target: HIV-1 Env of strain 6480.v4.c25 (HIV-1)
[40] = target: HIV-1 Env of strain CNE20 (HIV-1)
[41] = target: HIV-1 Env of strain 6545.v4.c1 (HIV-1)
[42] = target: HIV-1 Env of strain T250-4 (HIV-1)
[43] = target: Env of HIV-1 strain 191821_E6_1 (HIV-1)
[44] = target: HIV-1 Env of strain ZM109F.PB4 (HIV-1)
[45] = target: Env of HIV-1 strain CNE52 (HIV-1)
[46] = target: Env of HIV-1 strain CNE5 (HIV-1)
[47] = target: HIV-1 Env of strain 6244_13_B5_4576 (HIV-1)
[48] = target: HIV-1 Env of strain THRO4156.18 (HIV-1)
[49] = target: HIV-1 Env of strain P0402_c2_11 (HIV-1)
[50] = target: HIV-1 Env of strain ZM214M.PL15 (HIV-1)
[51] = target: Env of HIV-1 strain HIV-16845-2.22 (HIV-1)

NIH45-46 (antibody), sequence (VH): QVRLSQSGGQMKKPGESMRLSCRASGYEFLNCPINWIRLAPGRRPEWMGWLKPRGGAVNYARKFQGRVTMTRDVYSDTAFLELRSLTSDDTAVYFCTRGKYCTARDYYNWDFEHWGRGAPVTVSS
NIH45-46 (antibody), sequence (V domain): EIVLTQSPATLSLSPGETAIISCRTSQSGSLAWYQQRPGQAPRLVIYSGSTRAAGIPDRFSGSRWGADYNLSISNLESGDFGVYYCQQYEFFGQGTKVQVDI

## NIH45-46 (antibody)
[1]
  IC50, pseudovirus neutralization: 0.14 µg/mL
[2]
  IC80: 0.38 µg/mL
[3]
  IC80: 0.054 µg/mL
[4]
  IC50, pseudovirus neutralization: > 50 µg/mL
[5]
  IC80: 0.064 µg/mL
[6]
  IC80: > 50 µg/mL
[7]
  IC80: 0.06 µg/mL
[8]
  IC50, pseudovirus neutralization: 0.021 µg/mL
[9]
  IC50, pseudovirus neutralization: > 50 µg/mL
[10]
  IC80: > 50 µg/mL
[11]
  IC80: 6.37 µg/mL
[12]
  IC50, pseudovirus neutralization: 0.029 µg/mL
[13]
  IC50, pseudovirus neutralization: 0.101 µg/mL
[14]
  IC50, pseudovirus neutralization: 0.11 µg/mL
[15]
  IC50, pseudovirus neutralization: 0.04 µg/mL
[16]
  IC50, pseudovirus neutralization: 0.09 µg/mL
[17]
  IC80: 0.052 µg/mL
[18]
  IC50, pseudovirus neutralization: 0.02 µg/mL
[19]
  IC80: 1.38 µg/mL
[20]
  IC80: > 50 µg/mL
[21]
  IC80: 0.04 µg/mL
[22]
  IC50, pseudovirus neutralization: 0.04 µg/mL
[23]
  IC80: 0.13 µg/mL
[24]
  IC50, pseudovirus neutralization: 0.07 µg/mL
[25]
  IC80: 0.538 µg/mL
[26]
  IC50, pseudovirus neutralization: 0.009 µg/mL
[27]
  IC80: 3.17 µg/mL
[28]
  IC50, pseudovirus neutralization: > 50 µg/mL
[29]
  IC80: > 50 µg/mL
[30]
  IC80: 0.033 µg/mL
[31]
  IC80: 0.61 µg/mL
[32]
  IC50, pseudovirus neutralization: 0.159 µg/mL
[33]
  IC50, pseudovirus neutralization: 0.09 µg/mL
[34]
  IC80: 1.71 µg/mL
[35]
  IC50, pseudovirus neutralization: > 50 µg/mL
[36]
  IC80: 11.6 µg/mL
[37]
  IC50, pseudovirus neutralization: 0.26 µg/mL
[38]
  IC80: 0.073 µg/mL
[39]
  IC50, pseudovirus neutralization: 0.032 µg/mL
[40]
  IC50, pseudovirus neutralization: 7.83 µg/mL
[41]
  IC50, pseudovirus neutralization: > 50 µg/mL
[42]
  IC50, pseudovirus neutralization: > 50 µg/mL
[43]
  IC80: 0.46 µg/mL
[44]
  IC50, pseudovirus neutralization: 0.095 µg/mL
[45]
  IC80: 0.12 µg/mL
[46]
  IC80: 0.41 µg/mL
[47]
  IC50, pseudovirus neutralization: 0.07 µg/mL
[48]
  IC50, pseudovirus neutralization: 1.91 µg/mL
[49]
  IC50, pseudovirus neutralization: 0.073 µg/mL
[50]
  IC50, pseudovirus neutralization: 0.17 µg/mL
[51]
  IC80: 22.6 µg/mL
